Data as given in patent publication EP1073741B1.
Values joined by “and” are separate entries in the source; they are usually repeats but may differ in a detail not shown here. Equal entries are not always repeated.

How the values were obtained:
[1] = target: feline CD28, surface expressed on CD28-pSI transfected COS-7 cells (feline); experiment: cell-cell adhesion assay; calcein-labelled CD80 COS-7 cells on CD28 COS-7 monolayer; microplate fluorimeter
[2] = target: feline CD80, surface expressed on feCD80/pSI transfected COS-7 cells (feline); experiment: competitive cell-cell adhesion assay at 5x10^5 cells; huCTLA-4Ig pre-incubated with CD80 COS-7 cells, then added to CD28 COS-7 monolayer

Row | Substance | fold fluorescence against wells with mock transfected adherent cells, at 1x10^6 cells [1] [fold] | fold residual fluorescence against wells inhibited with soluble CD80 (close to the mock transfected control) [2]
1 | feline CD80, surface expressed on feCD80/pSI transfected COS-7 cells (ligand) | 5 | –
2 | huCTLA-4Ig fusion protein (from UniProt P16410 38-161) (Fc fusion) | – | 2 fold and 3 fold
